Test results reported in the supplement of paper PMC10126150.
± gives the standard deviation of the averaged measurements.

Tested on: ATP
Assay: switch fluorescence ratio, 500 uM ATP over buffer (Cy3 cluster intensity, sum of 5 cycles each) (fold (ratio)); higher = stronger signal-on switching upon ATP binding; sequences stand for … in TCGTCGGCAGCGTCAGATGTGTATAAGAGACAGTTTTTTTTTTTTTTTTTTTTTTTTT…TC
Settings: aptamer strand: ATP DNA aptamer (quencher-CACCTGGGGGAGTATTGCGGAGGAAGG + anchor), 100 nM annealed; ATP concentration: 500 uM
In short: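 Imaging in selection buffer was followed by imaging after 15 min with 500 uM ATP at 22 °C, for Cy3-labelled switching-strand clusters annealed to 100 nM quencher-labelled ATP aptamer on a modified Illumina MiSeq flow-cell. Five of these buffer/ATP cycles ran, separated by NaOH stripping and re-annealing. The fluorescence ratio per cluster is summed target-cycle over summed buffer-cycle Cy3 intensity, averaged per switch-domain sequence; clusters outside 100-1000 RFU were removed.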
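Further: ATP exposure 15 min at 22 °C before imaging.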

Sequence	switch fluorescence ratio
GGGCCCGCAA	5.05 ± 0.21
TATTACGAGT	1.02 ± 0.013
ATAGTTAGGT	1.03 ± 0.029
TGTAAGGGGT	1.06 ± 0.085
TAAGGGTTAC	0.996 ± 0.03
TCGATATATG	1 ± 0.028
GGGGTAGTG	1.03 ± 0.067
TTATTGATGG	0.99 ± 0.019
AAGGCATGCG	1.037 ± 0.005
CGTGTATTTC	1.02 ± 0.022
GATTTAATGG	1 ± 0.021
AATAGTTGGG	1.03 ± 0.015
TTGGAAGGTT	1.32 ± 0.42
ATAACAAGGG	1.04 ± 0.089
ACTAGTGGGG	0.996 ± 0.017
TAAAACTAAA	0.9977 ± 0.0012
GGTAGATCGG	1.004 ± 0.0061
TTACGGGGTA	1 ± 0.011
CAGGGGGATG	1.01 ± 0.032
AAGTTGATTC	0.979 ± 0.016
TTTAAGAGGG	0.978 ± 0.038
AATGGAGTTT	1 ± 0.023
GGGGCAACGT	0.983 ± 0.012
TAGATTGTA	1.01 ± 0.029
AAGCTTTGGA	0.983 ± 0.012
TGATGTTAGT	1.01 ± 0.024

Sequence	switch fluorescence ratio
CAGGCTGGTC	0.992 ± 0.053
GGCCCCTGGC	1.04 ± 0.063
GAATTACGGC	1.04 ± 0.069
GCTTTTTAGT	1.006 ± 0.0021
TATTATTTTT	0.998 ± 0.026
CATTCGTTTG	0.96 ± 0.0097
AGTCTTTTTG	0.999 ± 0.03
TCAAAAATAT	0.987 ± 0.025
TGGGCGTAG	0.993 ± 0.011
GGGAGAGACT	1.03 ± 0.014
CCTCGAGACT	1.43 ± 0.032
ATCTTAGTAA	0.9998 ± 0.0099
ATAACTGCGG	1.02 ± 0.012
AGTAAAAGCG	1.04 ± 0.017
GGGGGGATCT	1.004 ± 0.0098
TGGAGGACTA	1.14 ± 0.13
GCTACACTGA	1.04 ± 0.023
ATCTATGTTT	0.9872 ± 0.0041
TGGTGGCCGC	0.982 ± 0.032
TGATTAAGCA	0.999 ± 0.033
TGGGAACTCG	0.99483 ± 0.00048
GTTGCGGAAT	1.03 ± 0.023
TATTCTCATG	1 ± 0.047
ATTATGGGAT	0.996 ± 0.029
AGCTTGCTAT	0.97 ± 0.011
CAGATAGGTG	1.15 ± 0.089

Sequence	switch fluorescence ratio
TTGATCTT	1.008 ± 0.0042
ATGCCGGGTG	1.07 ± 0.047
GGAGGCACTG	0.9996 ± 0.0095
TTTAATAAGG	0.9962 ± 0.0027
ACTCGCCCCA	1.46 ± 0.084
TTTTGAAAGT	1.07 ± 0.14
TGTCTGAGGG	1 ± 0.013
ATCCTCTTGC	1.09 ± 0.036
GATGGATGGG	1.019 ± 0.0069
GATTCCATAT	1 ± 0.03
AGGGCTTTTA	1 ± 0.013
AGATTAATTT	0.986 ± 0.021
CAGGCGCTCT	1.04 ± 0.054
TTTGCGCGCG	0.992 ± 0.021
AACGACCCCC	1.74 ± 0.31
CGGCGGCAG	1.03 ± 0.064
AAAAGTAGGA	0.984 ± 0.065
CAGTGATTAT	1.01 ± 0.018
CATGAAGATG	0.98 ± 0.012
GGGGGATAAG	1 ± 0.028
CGGTTGGCAA	1.09 ± 0.054
GGCGCAACCG	1.09 ± 0.015
CGGCCCACGC	1.04 ± 0.082
TTCTTTTGGG	0.987 ± 0.039
TATTACACGT	1.021 ± 0.0046
CGGGTTAGTC	1.07 ± 0.027

Sequence	switch fluorescence ratio
CAAGGGGGA	0.995 ± 0.02
CGCACCCTTT	1.093 ± 0.0056
AGGGGATTGC	0.988 ± 0.019
TGCGGGTGAT	0.9857 ± 0.004
AAGATTTTGT	0.995 ± 0.014
AGAGGGCGTC	1.04 ± 0.046
TGCGCTTGTG	0.97 ± 0.025
CGAGTTTTTG	0.979 ± 0.014
TTTTATAGAT	0.977 ± 0.015
TATAAATTTG	1.01 ± 0.016
GGGGGGCTGA	0.982 ± 0.018
CAAGGGTTGT	0.992 ± 0.0024
CAATAGGAGA	0.981 ± 0.028
TGGAGGTGTG	0.977 ± 0.01
TAGATGAGCA	0.965 ± 0.07
TGCGACTTTG	1.03 ± 0.018
GGGATGGTTT	0.988 ± 0.028
TTCTTGGGTT	0.989 ± 0.031
ATGCAATGGC	1.437 ± 0.012
GTATTTACTC	1.04 ± 0.034
GATTTATCGC	1 ± 0.046
GCCAGATGCG	1.05 ± 0.064
TAGATGGCGG	1 ± 0.013
TAGTAGATGT	1.01 ± 0.036
CTTTTGGCCT	1.03 ± 0.038
CTTGGAGGA	1.024 ± 0.0093

Sequence	switch fluorescence ratio
GTTTAGAGGT	0.9925 ± 0.0082
ATGGAACGGT	1.003 ± 0.0053
TGTAGTTTGA	1 ± 0.012
GATTCAGACA	0.963 ± 0.015
TGAGGCAGGG	1.037 ± 0.0042
TCCAAAAACG	1.15 ± 0.21
TAGGAGGAGG	0.984 ± 0.011
ACTGGGGTCA	1 ± 0.03
TTTATGGAGG	0.991 ± 0.02
ACCCAAATCA	1.04 ± 0.019
CTGATCAATG	1.1 ± 0.02
GCTGGTTGAC	0.981 ± 0.017
CCATGGGGTG	1.25 ± 0.037
AATTTATTTG	1.01 ± 0.037
TTGGGTTTCG	1.01 ± 0.042
TATGGATTTT	0.987 ± 0.016
GGACGTTGAG	0.985 ± 0.021
ATGTTTTACG	0.988 ± 0.049
TTGAGGCCGG	1.038 ± 0.0038
CGCTGTGATG	1.013 ± 0.0053
TCACTAAAAA	0.979 ± 0.12
TTTTGTGGGG	0.999 ± 0.037
TTGGGGTGGG	1.01 ± 0.046
TGGGGGTAAG	0.989 ± 0.03
TGTTGCAATT	1.01 ± 0.052
CGTATATTAG	0.96 ± 0.014

Sequence	switch fluorescence ratio
ACTTACGGTT	1.32 ± 0.18
TGCTGGGGCT	0.9847 ± 0.0033
GACAGGTCGT	1.043 ± 0.0054
TCAAGTTTG	1.011 ± 0.0069
GGTGGCGGAT	1.07 ± 0.033
ACTTTATTAG	1.0103 ± 0.00038
CAGGATTGGG	0.973 ± 0.043
ATTAATCTGA	0.96 ± 0.029
TGGGCCTTGT	1.023 ± 0.0033
CCTCACAGTT	1.24 ± 0.096
AGGTTAATAG	0.996 ± 0.012
GGTGCATATA	1.05 ± 0.032
CCGAGTTAGG	1.068 ± 0.0066
CTCAGCCCGT	1.03 ± 0.095
AGGCAAATGC	1.25 ± 0.1
TTCGGGAGAA	1.01 ± 0.052
TTCGCGTAGA	1.01 ± 0.014
GCAGTGGGTC	0.995 ± 0.0057
TTAGACGGTT	1 ± 0.017
CAAAGGCAGG	1.004 ± 0.0065
GGAGATTGCG	0.96 ± 0.046
ATGAATTTTA	1 ± 0.031
TAGATCGTTG	0.977 ± 0.04
